Consider 21 variants from the RNAGym collection of RNA variant scans (doi:10.7554/elife.90254).

First the molecules themselves.
B1: OR4K15 (parent)
chain: GUUAACGGUCAUAGGCCAUGGAAACUAGGAGCACCAUUUCGCUGCCAGUGAAGAAAUGAACAAAGAAAAUCUGGGCCAGGCAGGCAUCAAAAGAAAUAGUCUUGCGCUCAACCAGAAAGUCUGUAAUCAUUUUAAGGGUA

The variants in the data set derive from B1. The data set can be described thus: self-cleavage, relative activity (ratio to wild type); higher = more cleavage; in vitro, sequencing; the parent is a self-cleaving ribozyme.
For GUUAACGGUCAUAGGCCAUGGAAACUAGGAGCACCAUUUCGCUGCCAGAGAAGAAAUGAACAAAGAAAAUCUGGGCCAGGCGGGCAUCAAAAGAAAUAGUCUUGCGCUCAACCAGAAAGUCUGUAAUCAUUUUAAGGGUA [U49A A82G], the self-cleavage is 0.52.

As to GUUAACGGUCAUAGGCCAUGGAAACUAGGAGCACCAUUUCGCUGCCAUUGAAGAAAUGAACAAAGAAAAUCUGGGCCAGGCAGGCAUCAAAAGAAAUAGUCCUGCGCUCAACCAGAAAGUCUGUAAUCAUUUUAAGGGUA [G48U U102C], the self-cleavage was 1.31.

On to GUUAACGGUCAUAGGCCAUGGAAACUAGGAGCACCAUUUCGCUGCCAGAGAAGAAAUGAACAAAGAAAAUCUGGGCCAGGCAGGCAUCAAAAGAGAUAGUCUUGCGCUCAACCAGAAAGUCUGUAAUCAUUUUAAGGGUA [U49A A95G], for which the self-cleavage stood at 1.76.

Consider GUUAACGGUCAUAGGCCAUGGAAACUAGGAGCACCAUUUCGCUGCCACUGAAGAAAUGAACAAAGAAAAUCUGGGCCAGGCAGGCAUCAAAUGAAAUAGUCUUGCGCUCAACCAGAAAGUCUGUAAUCAUUUUAAGGGUA [G48C A92U], for which the self-cleavage was found to be 1.18.

Regarding GUUAACGGUCAUAGGCCAUGGAAACUAGGAGCACCAUUUCGCUGCCAGAGAAGAAAUGAACAAAGAAAAUCUGGGCCAGGCAGGCGUCAAAAGAAAUAGUCUUGCGCUCAACCAGAAAGUCUGUAAUCAUUUUAAGGGUA [U49A A86G], the self-cleavage worked out at 1.19.

For the variant GUUAACGGUCAUAGGCCAUGGAAACUAGGAGCACCAUUUCGCUGCCAGAGAAGAAAUGAACAAAGAAAAUCUGGGCCAGGCAGGCAUCGAAAGAAAUAGUCUUGCGCUCAACCAGAAAGUCUGUAAUCAUUUUAAGGGUA [U49A A89G], the self-cleavage is 0.47.

For the variant GUUAACGGUCAUAGGCCAUGGAAACUAGGAGCACCAUUUCGCUGCCAGAGAAGAAAUGAACAAAGAAAAUCUGGGCCUGGCAGGCAUCAAAAGAAAUAGUCUUGCGCUCAACCAGAAAGUCUGUAAUCAUUUUAAGGGUA [U49A A78U], the self-cleavage was 0.33.

Take GUUAACGGUCAUAGGCCAUGGAAACUAGGAGCACCAUUUCGCUGCCAGAGAAGAAAUGAACAAGGAAAAUCUGGGCCAGGCAGGCAUCAAAAGAAAUAGUCUUGCGCUCAACCAGAAAGUCUGUAAUCAUUUUAAGGGUA [U49A A64G]: the self-cleavage was determined as 1.2.

Consider GUUAACGGUCAUAGGCCAUGGAAACUAGGAGCACCAUUUCGCUGCCAGAGAAGAAAUGAACAGAGAAAAUCUGGGCCAGGCAGGCAUCAAAAGAAAUAGUCUUGCGCUCAACCAGAAAGUCUGUAAUCAUUUUAAGGGUA [U49A A63G], for which the self-cleavage worked out at 1.46.

As for GUUAACGGUCAUAGGCCAUGGAAACUAGGAGCACCAUUUCGCUGCCAUUGAAGAAGUGAACAAAGAAAAUCUGGGCCAGGCAGGCAUCAAAAGAAAUAGUCUUGCGCUCAACCAGAAAGUCUGUAAUCAUUUUAAGGGUA [G48U A56G], the self-cleavage was determined as 1.4.

As for GUUAACGGUCAUAGGCCAUGGAAACUAGGAGCACCAUUUCGCUGCCAGAGAAGAAAUGAACAAAGAAAAUCUGGGCCAGGCAGGCAUCAAAAGAAAUCGUCUUGCGCUCAACCAGAAAGUCUGUAAUCAUUUUAAGGGUA [U49A A98C], the self-cleavage was found to be 1.58.

Regarding GUUAACGGUCAUAGGCCAUGGAAACUAGGAGCACCAUUUCGCUGCCAGAGAAGAAAUGAACAAAGAAAUUCUGGGCCAGGCAGGCAUCAAAAGAAAUAGUCUUGCGCUCAACCAGAAAGUCUGUAAUCAUUUUAAGGGUA [U49A A69U], the self-cleavage came to 1.92.

Take GUUAACGGUCAUAGGCCAUGGAAACUAGGAGCACCAUUUCGCUGCCAGAGAAGAAGUGAACAAAGAAAAUCUGGGCCAGGCAGGCAUCAAAAGAAAUAGUCUUGCGCUCAACCAGAAAGUCUGUAAUCAUUUUAAGGGUA [U49A A56G]: the self-cleavage came to 1.74.

As to GUUAACGGUCAUAGGCCAUGGAAACUAGGAGCACCAUUUCGCUGCCAGAGGAGAAAUGAACAAAGAAAAUCUGGGCCAGGCAGGCAUCAAAAGAAAUAGUCUUGCGCUCAACCAGAAAGUCUGUAAUCAUUUUAAGGGUA [U49A A51G], the self-cleavage stood at 1.02.

For the variant GUUAACGGUCAUAGGCCAUGGAAACUAGGAGCACCAUUUCGCUGCCAGAGAAGAAAUGAACAAAGAGAAUCUGGGCCAGGCAGGCAUCAAAAGAAAUAGUCUUGCGCUCAACCAGAAAGUCUGUAAUCAUUUUAAGGGUA [U49A A67G], the self-cleavage worked out at 1.13.

With GUUAACGGUCAUAGGCCAUGGAAACUAGGAGCACCAUUUCGCUGCCAUUGAAGAAAUGAACAAAGAAAAUCUGGGCCAGGCAGGCAUCAAAAGAAAUAGUCUUGCGCUCAACCAGAAAGUCUGUAAUCAUUUUAAGGGUA [G48U], the self-cleavage was determined as 1.61.

For GUUAACGGUCAUAGGCCAUGGAAACUAGGAGCACCAUUUCGCUGCCAGAGAAGAAAUGAACAAAGAAAAUCUGGGCCAGGCAGGCAUCAAAAGAAAUAGUCUUGCGCUCAACCAGAAAGUCUGUAAUCAUUUUAAGGGUA [U49A], the self-cleavage came out at 1.05.

Turning to GUUAACGGUCAUAGGCCAUGGAAACUAGGAGCACCAUUUCGCUGCCACUGAAGAAAUGAACAAAGAGAAUCUGGGCCAGGCAGGCAUCAAAAGAAAUAGUCUUGCGCUCAACCAGAAAGUCUGUAAUCAUUUUAAGGGUA [G48C A67G], the self-cleavage came out at 1.37.

With GUUAACGGUCAUAGGCCAUGGAAACUAGGAGCACCAUUUCGCUGCCAGAGAAGAAAUGAACAAAGAAAAUCUGGGCCAGGCAGGCAUCAGAAGAAAUAGUCUUGCGCUCAACCAGAAAGUCUGUAAUCAUUUUAAGGGUA [U49A A90G], the self-cleavage stood at 0.81.

Consider GUUAACGGUCAUAGGCCAUGGAAACUAGGAGCACCAUUUCGCUGCCAGAGAAGAAAUGAGCAAAGAAAAUCUGGGCCAGGCAGGCAUCAAAAGAAAUAGUCUUGCGCUCAACCAGAAAGUCUGUAAUCAUUUUAAGGGUA [U49A A60G], for which the self-cleavage is 1.32.

As to GUUAACGGUCAUAGGCCAUGGAAACUAGGAGCACCAUUUCGCUGCCAGAGAAGAAAUGAACUAAGAAAAUCUGGGCCAGGCAGGCAUCAAAAGAAAUAGUCUUGCGCUCAACCAGAAAGUCUGUAAUCAUUUUAAGGGUA [U49A A62U], the self-cleavage was determined as 1.92.
